± gives the standard deviation of the averaged measurements.
system: ATP; test: switch fluorescence ratio, 500 uM ATP over buffer (Cy3 cluster intensity, sum of 5 cycles each) (fold (ratio)); higher = stronger signal-on switching upon ATP binding; sequences stand for … in TCGTCGGCAGCGTCAGATGTGTATAAGAGACAGTTTTTTTTTTTTTTTTTTTTTTTTT…TC; details: aptamer strand: ATP DNA aptamer (quencher-CACCTGGGGGAGTATTGCGGAGGAAGG + anchor), 100 nM annealed; ATP concentration: 500 uM
How it was run: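 Per cluster, summed Cy3 intensity from the target cycles was divided by that from the buffer cycles to give the fluorescence ratio, then averaged per switch-domain sequence. Clusters outside 100-1000 RFU were excluded. The Cy3-labelled switching-strand clusters, on a modified Illumina MiSeq flow-cell, were annealed to 100 nM quencher-labelled ATP aptamer and imaged in selection buffer, then after 15 min with 500 uM ATP at 22 °C, for five cycles with NaOH stripping and re-annealing between them.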
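Also: ATP exposure 15 min at 22 °C before imaging.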

| Sequence | switch fluorescence ratio |
| --- | --- |
| AAATAGTGG | 0.9626 ± 0.0063 |
| AAATATATTA | 1.02 ± 0.016 |
| AAATATTGGG | 0.98 ± 0.068 |
| AAATATTGTG | 0.982 ± 0.023 |
| AAATCCGAAT | 1.01 ± 0.069 |
| AAATCGAGCT | 1.04 ± 0.049 |
| AAATCGAGGA | 1.018 ± 0.0096 |
| AAATCGGGGG | 1.05 ± 0.084 |
| AAATCGTAGT | 0.9885 ± 0.0069 |
| AAATCGTGGA | 0.987 ± 0.011 |
| AAATCGTTGT | 0.975 ± 0.043 |
| AAATCTCGGA | 1.2 ± 0.31 |
| AAATCTCTGA | 1.01 ± 0.025 |
| AAATCTTTCG | 1.05 ± 0.044 |
| AAATGACAGT | 1.01 ± 0.028 |
| AAATGAGTTA | 0.99 ± 0.019 |
| AAATGCAAAG | 0.991 ± 0.016 |
| AAATGCCAGG | 1.08 ± 0.032 |
| AAATGGAGTG | 0.987 ± 0.018 |
| AAATGGGAAA | 1.06 ± 0.084 |
| AAATGGTGTC | 1.01 ± 0.055 |
| AAATGTCTAA | 1 ± 0.019 |

| Sequence | switch fluorescence ratio |
| --- | --- |
| AAATGTTCCG | 1.03 ± 0.011 |
| AAATGTTCGT | 1.011 ± 0.0058 |
| AAATGTTTAC | 1.034 ± 0.0095 |
| AAATTAACAT | 1.08 ± 0.13 |
| AAATTAGAGG | 1 ± 0.026 |
| AAATTAGTGT | 0.968 ± 0.018 |
| AAATTATTTT | 0.999 ± 0.014 |
| AAATTCATAC | 1.052 ± 0.0078 |
| AAATTCGCTG | 1.01 ± 0.095 |
| AAATTCGGCG | 1.01 ± 0.023 |
| AAATTCGGTT | 0.99 ± 0.013 |
| AAATTGAGGG | 1.02 ± 0.061 |
| AAATTGATCC | 0.964 ± 0.016 |
| AAATTGGCTT | 0.97 ± 0.044 |
| AAATTGGGTT | 0.9768 ± 0.0091 |
| AAATTGTCAA | 1.01 ± 0.05 |
| AAATTTAATC | 1.02 ± 0.034 |
| AAATTTAGGA | 0.987 ± 0.021 |
| AAATTTAGTT | 1.017 ± 0.006 |
| AAATTTCTTT | 0.996 ± 0.016 |
| AAATTTGAAT | 1.0094 ± 0.00021 |
| AAATTTGCGT | 0.987 ± 0.02 |

| Sequence | switch fluorescence ratio |
| --- | --- |
| AAATTTGGGA | 0.969 ± 0.027 |
| AAATTTGGGG | 1 ± 0.038 |
| AAATTTTGAA | 0.977 ± 0.021 |
| AAATTTTGAG | 1.02 ± 0.032 |
| AAATTTTTAC | 1.02 ± 0.027 |
| AAATTTTTC | 1 ± 0.021 |
| AACAAAACAA | 1.04 ± 0.055 |
| AACAAAGAGA | 1.02 ± 0.026 |
| AACAACTCTC | 1.06 ± 0.017 |
| AACAAGCCCA | 1.008 ± 0.0066 |
| AACAATTGGG | 0.978 ± 0.0039 |
| AACACGGAAC | 1.29 ± 0.027 |
| AACAGATCTG | 1.02 ± 0.014 |
| AACAGCACGA | 1.28 ± 0.1 |
| AACAGGAAAT | 0.9596 ± 0.0032 |
| AACAGGATCG | 1.01 ± 0.053 |
| AACAGGGACC | 1.04 ± 0.017 |
| AACAGGGGGT | 1.01 ± 0.032 |
| AACAGGGGTG | 1.09 ± 0.015 |
| AACAGGTTTT | 1.003 ± 0.0062 |
| AACAGTTAGG | 0.9762 ± 0.0069 |
| AACATAAAAA | 1.26 ± 0.4 |

| Sequence | switch fluorescence ratio |
| --- | --- |
| AACATATATT | 1.02 ± 0.028 |
| AACATCTAGC | 0.994 ± 0.031 |
| AACATGGGGG | 1.01 ± 0.023 |
| AACATGGTGC | 1.01 ± 0.011 |
| AACATTAAGC | 1.04 ± 0.021 |
| AACATTCCTT | 1.23 ± 0.08 |
| AACCAGGATT | 0.9714 ± 0.0074 |
| AACCAGGGGG | 1.058 ± 0.0084 |
| AACCATACTA | 1.19 ± 0.028 |
| AACCCAAGGG | 1.09 ± 0.055 |
| AACCCGGGAG | 1.17 ± 0.2 |
| AACCGCGGGT | 1.03 ± 0.018 |
| AACCGCGTTG | 1.06 ± 0.012 |
| AACCGCTATA | 3.11 ± 1 |
| AACCGGATCG | 1.034 ± 0.01 |
| AACCGTATGG | 1 ± 0.022 |
| AACCGTCACA | 1.202 ± 0.0059 |
| AACCGTGGGG | 1.05 ± 0.042 |
| AACCGTGGTG | 1.05 ± 0.073 |
